Data: patent US20060073517A1

Molecular target: histone H3 methylated on lysine 9 and phosphorylated on serine 10
Experiment: binding graph, method not stated (FIG. 2)

fold drop in binding affinity (against H3 methylated on Lys 9 without phospho-Ser 10): 100 fold
Substance: HP1 (heterochromatin protein 1)
